Assay: soluble on expression in E. coli; label from the status in PepcDB or PDB records

Row | Sequence | soluble on expression in E. coli
1 | MDNPVTFSDITLLNTLATCANMTTDEVFKDFKIMANKKILKNHKYEIYYSESEKSWRTYLPDETKPNKRRPVKRKSKENLEKEIIRFYIEKQKAENRQNVTLEELYAEWLLYKRDYTSVKAKTIQEYVSEWNRFFKDTELVKMKIGEIKPITLIRFFREATKDRQFTHKRVSNARSVLNGIMSYAIEEEIISHNPVSDVNFKQFTYKPVEVQSDNVFSRDDTHKLLNYLRCIIEPYSLAIQLSFYLFIRVGETKAIRWEDIDYNNRLVYFHRQATCERTLNDDLTFSSRKVKVVNQMKGNTSHGFRKQFLTDEALKILHKAKELNPNGIYVFEPNGEIMTTDSFNRRLKKYCKEAGVPYHSSHKIRFYNASTAFDGNNLTTLSYLMGHSETATTLHYLRNVNKRKNDRLAFQNLGISS | not soluble
2 | MDPGQRPNPFGAPGAIPKKPCLSQGSPGTSGSGAPCDEPSRSESPGEGPSGTGGSAAAGDITRQAVVAAITEWSRTRQLRISTGASEGKASIKDWIVCQVNSGKFPGVEWEDEERTRFRIPVTPLADPCFEWRRDGELGVVYIRERGNMPVDASFKGTRGRRRMLAALRRTRGLQEIGKGISQDGHHFLVFRVRKPEEEQCVECGVVAGAVHDFNNMARLLQEGFFSPGQCLPGEIVTPVPSCTTAEGQEAVIDWGRLFIRMYYNGEQVHELLTTSQSGCRISSALRRDPAVHYCAVGSPGQVWLPNVPNLACEIAKRELCDTLDACAKGILLTSSCNGIFCVCYHNGPVHFIGNTVPPDSGPLLLPQGKPTRIFNPNTFLVGLANSPLPAPSHVTCPLVKLWLGKPVAVGKLEPHAPSPRDFAARCSNFSDACVVLEIMPKPLWDAMQ | soluble
3 | MDPTDLSFSPDEINKLIETGLNTVEYFTSQQVTGTSSLGKNTIPPGVTGLLTNAAEAKIQESTNHQKGSVGGGAKPKKPRPKIAIVPADDKTVPGKPIPNPLLGLDSTPSTQTVLDLSGKTLPSGSYKGVKLAKFGKENLMTRFIEEPRENPIATSSPIDFKRGRDTGGFHRREYSIGWVGDEVKVTEWCNPSCSPITAAARRFECTCHQCPVTCSECERDT | soluble
4 | MDPYQQGGRGGGFPARGGRGGGHGGGYPQEGYGAAAGGYGGYDPYNPYGAAGGYGMYPGQGYPPQEMTSPLDAEIQAVLREIHLEVTGLETSGDQFRNARRLLNSEKERLENNIDPEWLEVDVAKPVKVCKKILVPIYRHPNFNFIGKVLGPKGATLQTLCKTHKCHIYILGRGSTKDREKEAELLASGDPQHAHFSGPLHVKVETVAPAYIAYGRVAAVIEELSRILQPIHEDTTPAHLKNGSGDGEEKEDEEKKEGGEGGGRGGRGGRGGFRGGFRGGRGGFGGPGGPMGGRGGMGGMGGRGRGGQAAGFRPY | not soluble
5 | MDQECIENYAKVNGIYIYYKLCKAPEEKAKLMTMHGGPGMSHDYLLSLRDMTKEGITVLFYDQFGCGRSEEPDQSKFTIDYGVEEAEALRSKLFGNEKVFLMGSSYGGALALAYAVKYQDHLKGLIVSGGLSSVPLTVKEMNRLIDELPAKYRDAIKKYGSSGSYENPEYQEAVNYFYHQHLLRSEDWPPEVLKSLEYAERRNVYRIMNGPNQFTITGTIKDWDITDKISAIKIPTLITVGEYDEVTPNVARVIHEKIAGSELHVFRDCSHLTMWEDREGYNKLLSDFILKHL | soluble
6 | MDQENERNISRLWRAFRTVKEMVKDRGYFITQEEVELPLEDFKAKYCDSMGRPQRKMMSFQANPTEESISKFPDMGSLWVEFCDEPSVGVKTMKTFVIHIQEKNFQTGIFVYQNNITPSAMKLVPSIPPATIETFNEAALVVNITHHELVPKHIRLSSDEKRELLKRYRLKESQLPRIQRADPVALYLGLKRGEVVKIIRKSETSGRYASYRICM | soluble
7 | MDQNRGSDVGFAVPMLPVNYASATQKMSTLASTSSAGASSSTGSSNQQQQQAAAVIRRRRFSTAKIQPTRIKKVMQSDEDIGRMVQSVPVSIGRAMEHFAEKFLQAAAEATQFTSSKTLNPQHMKQAVLNTPHFSFLESVFKDVALPQQASELNTARTGMTLRGQQMLQEQQNSDFASAILANAQMQMMQMDQQALKQEDGTISPYLVDPQSPAAPLPLYLQGIPSNYPVVQELTATVPLSPSTPTTQLVNGMLGMLKYSKKDSEGQRLTGLKRASTDGDGEDRPKRGRPKKLKPEKCIDDDLYEEASRNIAKEDKDRELMPPPALPIGRP | not soluble
8 | MDQPWNANIHYDALLDAMVPLGTQCVLDVGCGDGLLAARLARRIPYVTAVDIDAPVLRRAQTRFANAPIRWLHADIMTAELPNAGFDAVVSNAALHHIEDTRTALSRLGGLVTPGGTLAVVTFVTPSLRNGLWHLTSWVACGMANRVKGKWEHSAPIKWPPPQTLHELRSHVRALLPGACIRRLLYGRVLVTWRAPVLEHHHHHH | not soluble
